Experimental data published in PMC5799254, “Target identification of small molecules using large-scale CRISPR-Cas mutagenesis scanning of essential genes” (Nature Communications, 2018).

Molecular target: the molecule itself
Assay: crystal structure; co-crystal of NAMPT (10 mg/mL) with a 5-fold excess of KPT-9274; hanging drops, 20 °C, reservoir 0.2 M NaCl, 0.1 M Tris pH 8.5, 22% PEG 3350

B1: nicotinamide phosphoribosyltransferase (NAMPT) (enzyme, human, UniProt P43490 1-491, looked up)
chain: MNPAAEAEFNILLATDSYKVTHYKQYPPNTSKVYSYFECREKKTENSKLRKVKYEETVFYGLQYILNKYLKGKVVTKEKIQEAKDVYKEHFQDDVFNEKGWNYILEKYDGHLPIEIKAVPEGFVIPRGNVLFTVENTDPECYWLTNWIETILVQSWYPITVATNSREQKKILAKYLLETSGNLDGLEYKLHDFGYRGVSSQETAGIGASAHLVNFKGTDTVAGLALIKKYYGTKDPVPGYSVPAAEHSTITAWGKDHEKDAFEHIVTQFSSVPVSVVSDSYDIYNACEKIWGEDLRHLIVSRSTQAPLIIRPDSGNPLDTVLKVLEILGKKFPVTENSKGYKLLPPYLRVIQGDGVDINTLQEIVEGMKQKMWSIENIAFGSGGGLLQKLTRDLLNCSFKCSYVVTNGLGINVFKDPVADPNKRSKKGRLSLHRTPAGNFVTLEEGKGDLEEYGQDLLHTVFKNGKVTKSYSFDEIRKNAQLNIELEAAHH
notes: nicotinamide phosphoribosyltransferase (NAMPT, NMPRTase), human, full length; also called NMPRTase
- stoichiometry N: 2
